± gives the uncertainty stated by the source.

The nature of this series: amyloid nucleation score (Sup35N fusion, yeast selection) (log enrichment); library NNK3; higher = more nucleation; inactive = no reads after selection. The essentials:
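Nucleation score is defined as the DiMSum log enrichment of output over input reads, with centring on the mode score of non-aggregating sequences. A minimum of 100 input reads was required for each sequence. Reads came from Illumina sequencing of plasmid inserts from psi-negative yeast expressing Sup35N fused to peptides of 20 random codons, induced with 100 μM copper sulfate for 24 hours and grown 7 days at 30°C on medium lacking adenine and uracil.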
Take RDHSTMQTEVLEWSRNPSMG: the amyloid nucleation score result was “inactive”.
For the substance QDLSYRVGLFWDRSIVLNWY, the amyloid nucleation score result was “inactive”.
For LRGKDN, the amyloid nucleation score entry was “inactive”.
Then CGTFNCYNGAL, with 0.699 ± 0.19; and RGKCSNIETRIVRCWGGQVV, with “inactive”; and SDMTYHQWGTVYTLD, with “inactive”.
Turning to NVCAVNFAWSITIWRYNY, the amyloid nucleation score result was “inactive”.
Next, NHSES: “inactive”.
Next, NGLVCQKWRPYSI: “inactive”; NYILSHWELV: “inactive”.
Next, YLYGGQRVGSF: “inactive”; LVVIWSRYSPRRNYPVTSNM: 0.679 ± 0.24; DEVVWY: “inactive”.
Consider CIPIMRTPLGTPSN, for which the amyloid nucleation score entry was “inactive”.
Next, SLASYLFTVTATNRYCERGA: 0.996 ± 0.12.
Next, CWYLVLSRLLCKNSRLHSNR: “inactive”.
As for RFHDNFAAK, the amyloid nucleation score result was “inactive”.
Next, YQCSASFYRTNVGPSTGHQL: 1.13 ± 0.11; CNSGWGTYVV: “inactive”.
Next, ILFTPMPVVD: “inactive”; FNKLVWNHLSGCV: “inactive”.
FTLPKHFTRIL: the amyloid nucleation score result was “inactive”.
With EKRPNPVSICLRWIKEKAT, the amyloid nucleation score result is “inactive”.
Consider LFYKREALMRGISSFKELSN, for which the amyloid nucleation score result is “inactive”.
Next, TENKSMSFFNYDRAYARIL: “inactive”.
Then ICYRWY, with 0.192 ± 0.19.
Next, RTTINLLMCGHVMGFNSCLF: 1.99 ± 0.084; RLNCDCPAMHVCN: 2.35 ± 0.074.
TWSMNIIMCLNRQVDQGFSL returned an amyloid nucleation score of 1.82 ± 0.075.
As for GTNDDESRRRRREWD, the amyloid nucleation score result is “inactive”.
As to CFELDVRDEA, the amyloid nucleation score entry is “inactive”.
HIWAHAFISLVLWLSPLSVS: the amyloid nucleation score result is “inactive”.
In the case of VYNQNAKVTN, the amyloid nucleation score result was “inactive”.
IRQGNVYK: the amyloid nucleation score result was “inactive”.
Then AVECSDRTTARWLNVTYAYF, with “inactive”; and CKSSWDVVMSSVSDWFWDGA, with “inactive”.
Take NVQSSGSRGAR: the amyloid nucleation score entry is “inactive”.
On to ICMSMNMSADPGMPAIMFNY, for which the amyloid nucleation score result is “inactive”.
Consider CSGAIHYPYRLMRERNFTGR, for which the amyloid nucleation score entry was “inactive”.
Then ILPFRWIVY, with “inactive”; and IQSKRRPSDCLPKS, with “inactive”.
With MWYLTDWIDCFCLSNMNICT, the amyloid nucleation score was determined as 1.81 ± 0.063.
Turning to RMAYNFTKSR, the amyloid nucleation score entry was “inactive”.
With KYFRNIYWHISRRIWAKAPG, the amyloid nucleation score result is “inactive”.
Take KSCHQSRFISDYRPAAPEDS: the amyloid nucleation score entry was “inactive”.
With DRIAHF, the amyloid nucleation score result is “inactive”.
SYSKVCRSKRQI yielded an amyloid nucleation score of 0.185 ± 0.71.
For YLNFIGTLEV, the amyloid nucleation score result is “inactive”.
Consider GRSLCVVCSGLVWLCW, for which the amyloid nucleation score was 2.19 ± 0.077.
Then RQHLFRSWEVQMSLSLDF, with -0.379 ± 0.63.
As for NYECNGWVGFVLTVPYGTIW, the amyloid nucleation score entry is “inactive”.
For SCIFNWFGFYNIINVFNLCF, the amyloid nucleation score was 2.5 ± 0.053.
Next, LVWWDGSEWTTWGVADIDWT: “inactive”; DNMSKTSFKLTNCRQCIM: “inactive”.
Next, SRTVKSRGSAQQDCGRVLRD: “inactive”; SYYITLHWIVASGSYSADNT: 0.454 ± 0.14.
Next, LASIHCVHLMRTYVRVQPPM: 0.87 ± 0.26; QNTGLYVN: “inactive”.
For the substance TSGHVVTMEHRLLYVPTIGF, the amyloid nucleation score entry is “inactive”.
Regarding RIKCMEIFERPCYFLFCLHK, the amyloid nucleation score result was “inactive”.
Next, WIYGYAVSLRSLYGLNLSM: “inactive”.
As for VPLMQGD, the amyloid nucleation score came to 3.16 ± 0.056.
The substance VNVVEFTRFRAW showed an amyloid nucleation score of 0.585 ± 0.35.
Next, FNSRNSVVTDLRYWSIRGLV: “inactive”; TYEGITVVTFVSYSYAIREP: 0.703 ± 0.096; FIGDGSRDRRDGLLDLY: “inactive”.
For VNESMNDIANRSDEGYFGCA, the amyloid nucleation score result was “inactive”.
Consider SVYRSRSHRVFWEFLSGAT, for which the amyloid nucleation score entry is “inactive”.
Next, IKVLVWFRSRCGNGANNLVC: “inactive”.
Next, GKYVVIDIGRSYFSKISGFR: “inactive”; RAYGPGRSASEALGRLCVGL: “inactive”.
Next, LVCNRWPNCANCRCRP: “inactive”; GRPTSRLMSNWTFPSATVSW: “inactive”.
As to IYNPRSNINQFPDTFEPDQM, the amyloid nucleation score result was “inactive”.
Next, RTYARYSMVGRLTMTSTRCE: “inactive”; SESPKMLVHVVSHILRDFSE: “inactive”.
For NGYTNASS, the amyloid nucleation score entry is “inactive”.
Then PLRKCAMCSWVSSGEGPTYP, with 0.483 ± 0.24.
Next, YVNFWKLVIREINFKKNGEP: “inactive”; VTNRIGLV: “inactive”.
Then VGTLRSAGIIMVSRELVMRV, with “inactive”; and RNNDVSEVKMLMKRELGFYN, with “inactive”.
Consider YARHSLDMRTSRDLTTLLGL, for which the amyloid nucleation score entry was “inactive”.
Next, WTGFFCNAVKTTTGFNALFL: “inactive”.
Then YAFISWNS, with “inactive”; and SQVGWG, with “inactive”; and YIQITQMAALARLYIYMRMC, with “inactive”.
Next, EQLFD: “inactive”; ISWYVWRVMYMSCGWSIVFR: “inactive”.
For LLAMRRIDWCSTPVTLILCR, the amyloid nucleation score entry is “inactive”.
Next, TFFEVGRQYELAVGKSRSSM: “inactive”; CKAESLWFNGLF: “inactive”; YNQCWLTIDINFRYLLA: 1.4 ± 0.15.
Take VIGQGLCWGFSTVDIP: the amyloid nucleation score entry is “inactive”.
Then CFASWN, with “inactive”; and VMYHGMITLLVMLKTEQRKK, with “inactive”; and PYRFLESTSRALYFTFSYTF, with “inactive”.
Next, DVFSDSQVVENRV: “inactive”; FYRRNAI: “inactive”; RFLRRIIDIVMGQSGNWMIR: “inactive”.
On to WRDRNF, for which the amyloid nucleation score was determined as 1.3 ± 0.15.
Next, VARISYLEIHNGETNFTYWF: 2.47 ± 0.062; RPNFDYTIWSMTNWILFTCD: “inactive”; FFSSDDMWRYWMFSYSDNSI: “inactive”.
For the substance TLNVVPR, the amyloid nucleation score result is “inactive”.
Then FSYSSRGVYYG, with -0.649 ± 0.98; and FVFIVCMCSSTWAQMYGLNW, with 1.25 ± 0.084; and VWDYLVAYYVALKNVTDSGQ, with “inactive”.
For YLSPEAQKLDQIDSMSADMV, the amyloid nucleation score result is “inactive”.
Next, QLSVNMYDCYDNGEHLRIGG: “inactive”.
Next, HSTLSLMHDSYRACSWKCNA: “inactive”; GCGPLNFSVESHQCLKS: “inactive”.
As for NCIAFGWLWSELRN, the amyloid nucleation score entry is “inactive”.
Next, IKFSEWMNVGIVWWHYLISG: “inactive”.
Substance SLCSVLIMHPSNSDRF yielded an amyloid nucleation score of 0.101 ± 0.75.
Then CWNLISWSKEYA, with “inactive”; and DSSDVVSVLVLSEMCAALVT, with “inactive”.
Turning to SCGSSH, the amyloid nucleation score result was “inactive”.
Then SARRNSRTFLSLFVFHLFRA, with “inactive”; and YNVFEALLNRWH, with “inactive”; and RCMTHRTLAHENRFVHTRCW, with “inactive”.
Next, SNGKVTLYKRLRDTSPQGIY: “inactive”; GLTLFWITAVAQAWDWLDPL: “inactive”; CKLNICRNVEETTIFRLGDV: 1.39 ± 0.11.
As for DISQGLRRNSSGYLVQRGYA, the amyloid nucleation score entry is “inactive”.
With CWLYFLS, the amyloid nucleation score entry was “inactive”.
Substance SFLRIDVVWFSAFFGWSPFL returned an amyloid nucleation score of 0.357 ± 0.54.
Then TWWSLGSVELVLWFKSCCDF, with 1.44 ± 0.083; and RVWMIGGYSDLFHWNSVLVS, with “inactive”.
Next, SDWFGCVVVTLCLVNHQALS: “inactive”; TMVFILQMLV: 1.47 ± 0.097.
Next, FFSSFPFKIIEMLSFEGSFR: “inactive”.
As for GEKIDRVM, the amyloid nucleation score entry was “inactive”.

For the origin of these results see the supplement of paper PMC12042874.
